Assay results reported in patent EP4566632A1, “MSLN ANTIBODY-DRUG CONJUGATE” (priority 2022, dated 2024).

System: NCI-H226 cells
Experiment: Lung cancer NCI-H226 model
Assay type: in vivo, BALB/c Nude mouse
Conditions: tail vein, twice a week x5, day 28 post-administration
Experimental: NCI-H226 cells were cultured in a RPMI-1640 medium containing 10% fetal bovine serum at 37°C in a 5% CO2 atmosphere. On the day of inoculation, NCI-H226 cells in the exponential growth phase were collected. Tumor cells were first resuspended in a mixture of PBS and Matrigel (1:1) and then subcutaneously inoculated. Each BALB/c Nude mouse was subcutaneously inoculated with 5 × 10^6 NCI-H226 tumor cells. When the average tumor volume in each group of mice reached 150 mm^3, the mice were divided into groups for dosing. 55 mice were divided into 11 groups, after which dosing began. The dosing schedule was twice a week for a total of five administrations via tail vein injection at doses of 1 mg/kg body weight or 5 mg/kg body weight. After dosing began, body weight and tumor volume were measured twice weekly. Tumor volume was calculated using the formula of: Tumor Volume (mm^3) = 0.5 × Tumor long diameter × Tumor short diameter^2. Observations concluded on day 28 post-administration, followed by the euthanasia of all mice. Data analysis was performed using the t-test.

B1: BAY-949343: ADC developed by Bayer: anti-MSLN monoclonal antibody MF-T (anetumab) conjugated to maytansinoid DM4 via SPDB linker (conjugate, chains of the INN, looked up)
VH: QVELVQSGAEVKKPGESLKISCKGSGYSFTSYWIGWVRQAPGKGLEWMGIIDPGDSRTRYSPSFQGQVTISADKSISTAYLQWSSLKASDTAMYYCARGQLYGGTYMDGWGQGTLVTVSS
VL: DIALTQPASVSGSPGQSITISCTGTSSDIGGYNSVSWYQQHPGKAPKLMIYGVNNRPSGVSNRFSGSKSGNTASLTISGLQAEDEADYYCSSYDIESATPVFGGGTKLTVL
modifications: DM4 via SPDB linker (ravtansine)
1 mg/kg
  average tumor volume: 497 mm^3
  tumor growth inhibition rate (TGI, %): 68%
5 mg/kg
  average tumor volume: 253 mm^3
  tumor growth inhibition rate (TGI, %): 84%
